Reference: patent US20090317333

Tested on: AKAR3 (A-Kinase Activity Reporter 3)

In the case of “catalytic subunit of PKA (protein kinase A), as used in the in vitro kinase assay”, the “FRET efficiency of AKAR3 after phosphorylation (trypsin quantification)” value was 38.8%±7.36% and 47.2%±7.67% (n=2) before and after phosphorylation, respectively, the “FRET efficiency of AKAR3 before phosphorylation (trypsin quantification)” value was 38.8%±7.36% and 47.2%±7.67% (n=2) before and after phosphorylation, respectively and the “increase of the emission ratio of AKAR3 over approximately 40 minutes after addition of ATP (in vitro kinase assay)” value was 29.1%±1.11% (n=2).
